ChEMBL document CHEMBL2074163, “Identification of monocarboxylate transporter 8 as a specific thyroid hormone transporter” (J Biol Chem, 2003)

Key:
Format in all cases: functional, cell-based
Conditions in all cases: Oocyte
[1] = substrate: NC(Cc1ccc(Oc2cc(I)c(O)c(I)c2)c(I)c1)C(=O)O; assay: (§1) TP_TRANSPORTER: uptake in Xenopus laevis oocytes
[2] = substrate: N[C@@H](Cc1cc(I)c(Oc2cc(I)c(O)c(I)c2)c(I)c1)C(=O)O; assay: as §1
[3] = substrate: N[C@@H](Cc1ccc(Oc2cc(I)c(O)c(I)c2)c(I)c1)C(=O)O; assay: as §1

B1: Monocarboxylate transporter 8 (Rattus norvegicus), Q8K1P8 (protein)
chain: MALPSPASEEAEGPCQEANQEYQEPVCSPVPEPEPEPEPEPEPEPEPVPVPPPEPQPEPEPQPLPDPAPLPVLGFEAEPVQEPEPTPTVETRGTARGFQPPEGGFGWIVVFAATWCNGSIFGIHNSVGILYSMLLEEEKEKNRQVEFQAAWVGALAMGMIFFCSPIVSIFTDRLGCRITATTGAAVAFIGLHTSSFTSSLSLRYFTYGILFGCGCSFAFQPSLVILGHYFQRRLGLANGVVSAGSSIFSMSFPFLIKMLGDRIKLAQTFQVLSTFMFVLTLLSLTYRPLLPSSQDTPSKRGAHTLRQRFLVQFRKYFNMRVFRQRTYRIWAFGIAAAALGYFVPYVHLMKYVEDKFKEIKETWVLLVCIGATSGLGRLVSGHISDSIPGLKKIYLQVLSFLLLGLMSMMIPLCRDFGGLIVVCLFLGLCDGFFITIMAPIAFELVGPMQASQAIGYLLGMMALPMIAGPPIAGLLRNCFGNYHVAFYFAGVPPIIGAVILFFVPLMHQRMFKKEQRESSKDKMLSHDPDPNGELLPGSPTPEEPI
For B1, the Km [1] was 2.2 µM, the Km [2] was 4.7 µM and the Km [3] was 4 µM.
